Kd data for 2 molecules are collected here from article PMC9486129 (2022).

Where no end group is shown, it is not given here. [ ]: non-standard residue; d: D form. pY = N[C@@H](Cc1ccc(OP(=O)(O)O)cc1)C(=O)O

One may read the Kd as the constant that tells how readily two partners part at equilibrium. Read a low Kd as tighter binding.

One assay has as its target ITAM-Y2P-ζ3 ITAM3 (Homo sapiens, UniProt P20963, doubly phosphorylated ITAM).
Assay [1] concerns the target T1, ZAP-70 tSH2 WT (1–256).
T1 chain: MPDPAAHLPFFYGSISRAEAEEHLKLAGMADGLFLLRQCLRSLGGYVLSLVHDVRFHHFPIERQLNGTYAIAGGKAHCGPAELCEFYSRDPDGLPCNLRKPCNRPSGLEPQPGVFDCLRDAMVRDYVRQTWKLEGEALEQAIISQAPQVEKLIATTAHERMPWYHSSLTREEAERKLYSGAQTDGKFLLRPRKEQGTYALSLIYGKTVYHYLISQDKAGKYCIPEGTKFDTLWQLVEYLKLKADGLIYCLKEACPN
Description: Kd1, first site (intrinsic fluorescence titration).

For assay [2], the target named is T1, ZAP-70 tSH2 WT (1–256). Description: ITC; Kd2, second site. For orientation: In ITC the heat of successive injections is recorded.

Chain of ITAM-Y2P-ζ3 ITAM3 (P20963 128-162): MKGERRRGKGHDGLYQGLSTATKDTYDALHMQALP

B1: ZAP-70 C-SH2 (protein)
chain: WYHSSLTREEAERKLYSGAQTDGKFLLRPRKEQGTYALSLIYGKTVYHYLISQDKAGKYCIPEGTKFDTLWQLVEYLKLKADGLIYCLKEAC
In turn, B1 showed a Kd in the assay with ITAM-Y2P-ζ3 ITAM3 of 6.8 nM. NQL[pY]NELNLGRRAE[pY]DVLD [ITAM-Y2P-ζ1 E13A]: the Kd came to 4.5 nM with ZAP-70 tSH2 WT (1–256) [1] and 9800 nM with ZAP-70 tSH2 WT (1–256) [2].
